Experiments:
[1] = target: cynomolgus monkey (cyno) GITR (cynomolgus monkey)
[2] = target: cynomolgus monkey (cyno) GITR (cynomolgus monkey); remark: listed apart in the source

For MEDI1873 (Fc fusion), the Jurkat NFκB reporter gene assay with cyno GITR-transfected cells, EC50 [1] was 0.000422 µM and the Kd [2] was 0.107 µM.
